Where no end group is shown, it is not given here. [ ]: non-standard residue; d: D form. Aib = CC(C)(N)C(=O)O
B1: [Aib8,Glu23,Val25,Lys35,Aib36,Lys37]-GLP-1-(7-37)-peptidyl-Glu-Phe-Leu amide (peptide)
peptide: H[Aib]EGTFTSDVSSYLEGEAVKEFIAWLVKK[Aib]KEFL-NH2
modifications: N-terminus assumed
SMILES: CC[C@H](C)[C@H](NC(=O)[C@H](Cc1ccccc1)NC(=O)[C@H](CCC(=O)O)NC(=O)[C@H](CCCCN)NC(=O)[C@@H](NC(=O)[C@H](C)NC(=O)[C@H](CCC(=O)O)NC(=O)CNC(=O)[C@H](CCC(=O)O)NC(=O)[C@H](CC(C)C)NC(=O)[C@H](Cc1ccc(O)cc1)NC(=O)[C@H](CO)NC(=O)[C@H](CO)NC(=O)[C@@H](NC(=O)[C@H](CC(=O)O)NC(=O)[C@H](CO)NC(=O)[C@@H](NC(=O)[C@H](Cc1ccccc1)NC(=O)[C@@H](NC(=O)CNC(=O)[C@H](CCC(=O)O)NC(=O)C(C)(C)NC(=O)[C@@H](N)Cc1c[nH]cn1)[C@@H](C)O)[C@@H](C)O)C(C)C)C(C)C)C(=O)N[C@@H](C)C(=O)N[C@@H](Cc1c[nH]c2ccccc12)C(=O)N[C@@H](CC(C)C)C(=O)N[C@H](C(=O)N[C@@H](CCCCN)C(=O)N[C@@H](CCCCN)C(=O)NC(C)(C)C(=O)N[C@@H](CCCCN)C(=O)N[C@@H](CCC(=O)O)C(=O)N[C@@H](Cc1ccccc1)C(=O)N[C@@H](CC(C)C)C(N)=O)C(C)C
B2: [Aib8,Glu23,Val25,Glu34,Lys35,Val36,Lys37]-GLP-1-(7-37)-peptidyl-Glu-Glu-Leu amide (peptide)
peptide: H[Aib]EGTFTSDVSSYLEGEAVKEFIAWLVEKVKEEL-NH2
modifications: N-terminus assumed
SMILES: CC[C@H](C)[C@H](NC(=O)[C@H](Cc1ccccc1)NC(=O)[C@H](CCC(=O)O)NC(=O)[C@H](CCCCN)NC(=O)[C@@H](NC(=O)[C@H](C)NC(=O)[C@H](CCC(=O)O)NC(=O)CNC(=O)[C@H](CCC(=O)O)NC(=O)[C@H](CC(C)C)NC(=O)[C@H](Cc1ccc(O)cc1)NC(=O)[C@H](CO)NC(=O)[C@H](CO)NC(=O)[C@@H](NC(=O)[C@H](CC(=O)O)NC(=O)[C@H](CO)NC(=O)[C@@H](NC(=O)[C@H](Cc1ccccc1)NC(=O)[C@@H](NC(=O)CNC(=O)[C@H](CCC(=O)O)NC(=O)C(C)(C)NC(=O)[C@@H](N)Cc1c[nH]cn1)[C@@H](C)O)[C@@H](C)O)C(C)C)C(C)C)C(=O)N[C@@H](C)C(=O)N[C@@H](Cc1c[nH]c2ccccc12)C(=O)N[C@@H](CC(C)C)C(=O)N[C@H](C(=O)N[C@@H](CCC(=O)O)C(=O)N[C@@H](CCCCN)C(=O)N[C@H](C(=O)N[C@@H](CCCCN)C(=O)N[C@@H](CCC(=O)O)C(=O)N[C@@H](CCC(=O)O)C(=O)N[C@@H](CC(C)C)C(N)=O)C(C)C)C(C)C
B3: [Aib8,Glu23,Val25,Glu34,Lys35,Val36,Lys37]-GLP-1-(7-37)-peptidyl-Gly-Phe-Leu amide (peptide)
peptide: H[Aib]EGTFTSDVSSYLEGEAVKEFIAWLVEKVKGFL-NH2
modifications: N-terminus assumed
SMILES: CC[C@H](C)[C@H](NC(=O)[C@H](Cc1ccccc1)NC(=O)[C@H](CCC(=O)O)NC(=O)[C@H](CCCCN)NC(=O)[C@@H](NC(=O)[C@H](C)NC(=O)[C@H](CCC(=O)O)NC(=O)CNC(=O)[C@H](CCC(=O)O)NC(=O)[C@H](CC(C)C)NC(=O)[C@H](Cc1ccc(O)cc1)NC(=O)[C@H](CO)NC(=O)[C@H](CO)NC(=O)[C@@H](NC(=O)[C@H](CC(=O)O)NC(=O)[C@H](CO)NC(=O)[C@@H](NC(=O)[C@H](Cc1ccccc1)NC(=O)[C@@H](NC(=O)CNC(=O)[C@H](CCC(=O)O)NC(=O)C(C)(C)NC(=O)[C@@H](N)Cc1c[nH]cn1)[C@@H](C)O)[C@@H](C)O)C(C)C)C(C)C)C(=O)N[C@@H](C)C(=O)N[C@@H](Cc1c[nH]c2ccccc12)C(=O)N[C@@H](CC(C)C)C(=O)N[C@H](C(=O)N[C@@H](CCC(=O)O)C(=O)N[C@@H](CCCCN)C(=O)N[C@H](C(=O)N[C@@H](CCCCN)C(=O)NCC(=O)N[C@@H](Cc1ccccc1)C(=O)N[C@@H](CC(C)C)C(N)=O)C(C)C)C(C)C

What follows are binders tested against human GLP-1 receptor (human, UniProt P43220) (assay: cell-based or functional assay).
For B1, the “CRE luciferase EC50, 0% HSA” value was 0.921 nM and the “CRE luciferase EC50, 1% HSA” value was 0.276 nM. In the case of B2, the “CRE luciferase EC50, 0% HSA” value is reported as 0.025 nM and the “CRE luciferase EC50, 1% HSA” value is reported as 0.016 nM. In the case of B3, the “CRE luciferase EC50, 0% HSA” value is reported as 0.129 nM and the “CRE luciferase EC50, 1% HSA” value is reported as 0.032 nM.

Reference: US20150344540A1, “NOVEL GLP-1 RECEPTOR AGONISTS WITH CHOLESTEROL EFFLUX ACTIVITY” (NOVO NORDISK A/S, priority 2012, published 2015)
